Experimental findings from publication PMC10858868, “TFIP11 promotes replication fork reversal to preserve genome stability” are described below.

The target of the series is T1, TFIP11 (UniProt Q9UBB9 1-837).
T1 sequence: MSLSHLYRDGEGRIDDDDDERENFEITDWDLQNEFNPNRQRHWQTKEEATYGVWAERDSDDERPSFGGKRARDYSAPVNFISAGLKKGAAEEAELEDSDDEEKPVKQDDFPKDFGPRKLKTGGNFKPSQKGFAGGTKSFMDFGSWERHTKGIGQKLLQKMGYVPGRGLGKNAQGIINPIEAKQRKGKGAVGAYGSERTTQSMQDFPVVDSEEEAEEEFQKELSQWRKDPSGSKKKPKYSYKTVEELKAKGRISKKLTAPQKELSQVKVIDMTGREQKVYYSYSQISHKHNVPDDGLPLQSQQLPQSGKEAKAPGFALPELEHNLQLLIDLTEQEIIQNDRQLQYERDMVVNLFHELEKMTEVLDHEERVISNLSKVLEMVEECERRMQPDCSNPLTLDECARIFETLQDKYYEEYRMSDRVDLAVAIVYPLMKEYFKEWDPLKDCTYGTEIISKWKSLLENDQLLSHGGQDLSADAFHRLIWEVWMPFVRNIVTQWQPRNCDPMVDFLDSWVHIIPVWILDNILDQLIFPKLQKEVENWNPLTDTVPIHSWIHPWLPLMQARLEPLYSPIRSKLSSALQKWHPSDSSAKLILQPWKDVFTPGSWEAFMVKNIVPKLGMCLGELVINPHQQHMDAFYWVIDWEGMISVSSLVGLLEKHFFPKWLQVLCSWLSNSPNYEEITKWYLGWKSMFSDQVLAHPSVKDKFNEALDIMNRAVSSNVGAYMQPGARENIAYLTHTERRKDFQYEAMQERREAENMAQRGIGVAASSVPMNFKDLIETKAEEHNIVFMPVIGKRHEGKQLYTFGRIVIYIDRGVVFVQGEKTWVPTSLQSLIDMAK
Kind of series: EMSA; 15, 30 nM TFIP11; 0.5 nM DNA; at most about 6% bound in Source Data; EMSA: 10 mM MgCl2, 2.5% glycerol, 0.05% NP-40, 0.5 nM biotin-DNA, 20 min, room temperature (Pierce LightShift kit). Pull-down: 20 mM Tris-HCl pH 7.5, 120 mM NaCl, 0.1% Triton X-100, 2 mM CaCl2, 10 mM Mg(OAc)2, 1 mM DTT, 0.1 mg/mL BSA, 4 °C, 30 min. Particulars: protein: recombinant, tags: His-SUMO (N-terminal).

B1: dsDNA (oligo 1 + oligo 2) (dsDNA)
DNA 1: GACGCTGCCGAATTCTACCAGTGCCTTGCTAGGACATCTTTGCCCACCTGCAGGTTCAC
DNA 2: GTGAACCTGCAGGTGGGCAAAGATGTCCTAGCAAGGCACTGGTAGAATTCGGCAGCGTC
With B1, under “label: 5'-biotin on oligo 1, blunt”, the binding result is on record as “no binding”.

B2: ssDNA (oligo 1) (ssDNA)
DNA: B1 DNA 1
With B2, the binding result (label: 5'-biotin, single strand) is “no binding”.
